{"source": "patent US8242083B2", "about": "“Kinase substrates” (PerkinElmer Health Sciences, Inc., priority 2008, dated 2012)", "format_in_all_cases": "biochemical", "key": {"SRM": {"target": "SRM (Homo sapiens, UniProt Q9H3Y6)", "sequence (Q9H3Y6 whole entry)": "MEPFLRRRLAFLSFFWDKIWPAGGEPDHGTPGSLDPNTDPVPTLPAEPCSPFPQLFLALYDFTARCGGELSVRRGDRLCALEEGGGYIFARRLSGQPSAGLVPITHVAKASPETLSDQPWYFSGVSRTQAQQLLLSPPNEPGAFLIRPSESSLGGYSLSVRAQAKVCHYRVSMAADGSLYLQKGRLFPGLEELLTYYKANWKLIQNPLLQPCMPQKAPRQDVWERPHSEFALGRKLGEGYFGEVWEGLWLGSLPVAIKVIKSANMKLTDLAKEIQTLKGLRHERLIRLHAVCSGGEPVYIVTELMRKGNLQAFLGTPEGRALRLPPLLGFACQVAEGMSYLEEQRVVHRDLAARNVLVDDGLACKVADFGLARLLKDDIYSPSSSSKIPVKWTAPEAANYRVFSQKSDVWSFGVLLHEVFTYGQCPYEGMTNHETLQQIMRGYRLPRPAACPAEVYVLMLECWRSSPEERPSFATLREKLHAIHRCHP", "assay": "TR-FRET kinase assay, SRM", "details": "Kinase Concentration 0.5 nM; 50 nM ULight-labeled substrate, 200 micromolar ATP, 2 hours", "procedure": "(§1) TR-FRET kinase assays are performed under standardized conditions: various individual kinases are incubated with 50 nM of kinase substrate BRB1 labeled with the TR-FRET acceptor dye ULight (PerkinElmer) and 200 micromolar ATP in 10 μL of kinase assay buffer (50 mM HEPES pH7.5, 10 mM MgCl2, 3 mM MnCl2, 1 mM EGTA, 2 mM DTT and 0.01% Tween-20) for 2 hours at room temperature. Reactions are stopped with EDTA, and anti-phospho-tyrosine antibodies (clone PT66) labeled with the TR-FRET europium chelate donor dye are added to a final concentration of 2 nM in a final volume of 20 μL. The TR-FRET signal emitted at 665 nm is read one hour after the addition of antibodies using a TR-FRET plate reader such as the Envision® Multilabel Plate reader (PerkinElmer). The emitted signal at 665 nm is proportional to the extent of peptide phosphorylation, Control reactions indicative of background are performed excluding ATP from the reaction.\n(§2) Assay conditions are identical to those used described for FIG. 1."}, "TRKC (NTRK3)": {"target": "TRKC (NTRK3) (Homo sapiens, UniProt Q16288)", "assay": "TR-FRET kinase assay, TRKC (NTRK3)", "details": "Kinase Concentration 0.5 nM; 50 nM ULight-labeled substrate, 200 micromolar ATP, 2 hours", "procedure": "as §1, §2"}, "TXK": {"target": "T1, TXK (Homo sapiens, UniProt P42681)", "T1 sequence (P42681 1-527)": "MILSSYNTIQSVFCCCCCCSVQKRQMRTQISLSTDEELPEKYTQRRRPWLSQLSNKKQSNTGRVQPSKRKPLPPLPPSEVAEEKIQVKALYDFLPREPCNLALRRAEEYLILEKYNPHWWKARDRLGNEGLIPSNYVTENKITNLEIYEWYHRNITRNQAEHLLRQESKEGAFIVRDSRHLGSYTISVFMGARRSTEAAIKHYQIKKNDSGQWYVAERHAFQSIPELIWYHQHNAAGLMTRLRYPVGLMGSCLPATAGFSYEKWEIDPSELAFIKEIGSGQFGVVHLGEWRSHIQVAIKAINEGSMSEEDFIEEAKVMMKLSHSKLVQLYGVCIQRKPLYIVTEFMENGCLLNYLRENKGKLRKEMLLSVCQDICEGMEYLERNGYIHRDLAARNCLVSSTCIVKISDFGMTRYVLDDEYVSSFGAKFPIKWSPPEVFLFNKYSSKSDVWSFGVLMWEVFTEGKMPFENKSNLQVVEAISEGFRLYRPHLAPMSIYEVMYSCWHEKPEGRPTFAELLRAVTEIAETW", "assay": "TR-FRET kinase assay, TXK", "details": "Kinase Concentration 3 nM; 50 nM ULight-labeled substrate, 200 micromolar ATP, 2 hours", "procedure": "as §1, §2"}, "TRKB (NTRK2)": {"target": "TRKB (NTRK2) (Homo sapiens, UniProt Q16620)", "assay": "TR-FRET kinase assay, TRKB (NTRK2)", "details": "Kinase Concentration 0.5 nM; 50 nM ULight-labeled substrate, 200 micromolar ATP, 2 hours", "procedure": "as §1, §2"}, "IGF1R": {"target": "IGF1R (Homo sapiens, UniProt P08069)", "assay": "TR-FRET kinase assay, IGF1R", "details": "Kinase Concentration 0.25 nM; 50 nM ULight-labeled substrate, 200 micromolar ATP, 2 hours", "procedure": "as §1, §2"}, "TYRO3": {"target": "T2, TYRO3 (Homo sapiens, UniProt Q06418)", "T2 sequence (Q06418 41-890)": "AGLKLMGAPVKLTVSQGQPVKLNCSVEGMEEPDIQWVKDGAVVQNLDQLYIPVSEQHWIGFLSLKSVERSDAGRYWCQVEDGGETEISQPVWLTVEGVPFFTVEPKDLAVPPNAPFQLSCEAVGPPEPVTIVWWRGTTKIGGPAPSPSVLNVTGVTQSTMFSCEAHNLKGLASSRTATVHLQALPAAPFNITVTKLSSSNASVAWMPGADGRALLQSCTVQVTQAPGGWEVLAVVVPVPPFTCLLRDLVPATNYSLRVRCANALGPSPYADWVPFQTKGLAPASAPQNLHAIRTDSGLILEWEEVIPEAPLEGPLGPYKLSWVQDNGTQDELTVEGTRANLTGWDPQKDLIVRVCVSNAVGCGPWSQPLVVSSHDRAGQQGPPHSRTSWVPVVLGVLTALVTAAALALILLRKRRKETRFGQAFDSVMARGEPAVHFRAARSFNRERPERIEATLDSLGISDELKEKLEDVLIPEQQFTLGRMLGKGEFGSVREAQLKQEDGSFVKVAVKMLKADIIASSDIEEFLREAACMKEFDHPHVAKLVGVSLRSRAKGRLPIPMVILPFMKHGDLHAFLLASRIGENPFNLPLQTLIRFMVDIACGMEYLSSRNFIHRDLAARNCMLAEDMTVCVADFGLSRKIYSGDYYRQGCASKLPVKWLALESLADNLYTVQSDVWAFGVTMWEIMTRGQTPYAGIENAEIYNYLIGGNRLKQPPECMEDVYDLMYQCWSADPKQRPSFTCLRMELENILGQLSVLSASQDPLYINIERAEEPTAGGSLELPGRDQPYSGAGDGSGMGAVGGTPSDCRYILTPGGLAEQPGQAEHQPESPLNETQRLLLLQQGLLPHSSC", "assay": "TR-FRET kinase assay, TYRO3", "details": "Kinase Concentration 0.25 nM; 50 nM ULight-labeled substrate, 200 micromolar ATP, 2 hours", "procedure": "as §1, §2"}, "ALK": {"target": "ALK (Homo sapiens, UniProt Q9UM73)", "sequence (Q9UM73 19-1620, species assumed)": "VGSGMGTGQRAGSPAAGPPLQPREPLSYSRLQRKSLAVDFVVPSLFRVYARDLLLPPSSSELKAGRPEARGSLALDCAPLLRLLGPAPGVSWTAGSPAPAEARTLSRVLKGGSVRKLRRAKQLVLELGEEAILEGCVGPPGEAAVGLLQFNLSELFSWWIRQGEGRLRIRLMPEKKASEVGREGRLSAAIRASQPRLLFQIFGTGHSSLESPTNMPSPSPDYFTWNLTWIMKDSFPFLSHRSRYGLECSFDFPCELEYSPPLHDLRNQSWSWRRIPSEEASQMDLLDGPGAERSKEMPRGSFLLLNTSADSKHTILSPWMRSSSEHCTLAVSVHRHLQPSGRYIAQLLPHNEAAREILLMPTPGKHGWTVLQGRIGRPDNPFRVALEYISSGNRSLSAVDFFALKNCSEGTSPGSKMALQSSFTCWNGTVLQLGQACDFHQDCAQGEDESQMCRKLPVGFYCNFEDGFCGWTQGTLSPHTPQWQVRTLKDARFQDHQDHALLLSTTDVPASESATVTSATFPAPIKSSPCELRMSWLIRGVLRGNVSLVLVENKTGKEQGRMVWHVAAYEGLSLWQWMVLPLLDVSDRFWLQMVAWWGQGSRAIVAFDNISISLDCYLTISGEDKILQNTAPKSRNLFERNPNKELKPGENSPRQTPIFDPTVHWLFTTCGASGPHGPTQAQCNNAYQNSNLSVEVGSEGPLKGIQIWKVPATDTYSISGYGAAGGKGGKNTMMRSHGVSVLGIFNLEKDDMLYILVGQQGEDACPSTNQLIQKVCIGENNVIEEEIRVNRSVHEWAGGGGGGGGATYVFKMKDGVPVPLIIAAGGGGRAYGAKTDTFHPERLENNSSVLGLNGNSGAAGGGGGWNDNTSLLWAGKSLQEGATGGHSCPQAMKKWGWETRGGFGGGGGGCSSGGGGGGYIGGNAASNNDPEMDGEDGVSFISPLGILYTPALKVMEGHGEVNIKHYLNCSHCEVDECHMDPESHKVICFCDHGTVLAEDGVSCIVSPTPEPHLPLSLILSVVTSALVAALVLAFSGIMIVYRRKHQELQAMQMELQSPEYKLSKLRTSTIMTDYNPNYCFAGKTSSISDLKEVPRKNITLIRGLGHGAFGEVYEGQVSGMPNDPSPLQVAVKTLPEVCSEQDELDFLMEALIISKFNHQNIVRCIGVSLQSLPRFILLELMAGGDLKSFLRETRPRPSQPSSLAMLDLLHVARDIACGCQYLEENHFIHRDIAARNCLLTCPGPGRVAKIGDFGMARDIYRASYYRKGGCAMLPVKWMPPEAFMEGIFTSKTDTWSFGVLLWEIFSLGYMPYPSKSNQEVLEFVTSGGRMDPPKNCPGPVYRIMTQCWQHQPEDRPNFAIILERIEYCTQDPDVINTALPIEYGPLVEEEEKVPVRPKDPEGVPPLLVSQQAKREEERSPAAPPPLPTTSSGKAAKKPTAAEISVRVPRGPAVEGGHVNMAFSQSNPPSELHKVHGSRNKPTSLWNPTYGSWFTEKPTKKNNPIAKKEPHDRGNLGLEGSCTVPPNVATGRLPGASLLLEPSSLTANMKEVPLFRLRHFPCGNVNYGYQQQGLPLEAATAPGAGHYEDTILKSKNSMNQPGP", "assay": "TR-FRET kinase assay, ALK", "details": "Kinase Concentration 4 nM; 50 nM ULight-labeled substrate, 200 micromolar ATP, 2 hours", "procedure": "as §1, §2"}, "HER2": {"target": "HER2 (Homo sapiens, UniProt P04626)", "assay": "TR-FRET kinase assay, HER2", "details": "Kinase Concentration 10 nM; 50 nM ULight-labeled substrate, 200 micromolar ATP, 2 hours", "procedure": "as §1, §2"}, "FMS (CSFR)": {"target": "FMS (CSFR) (Homo sapiens, UniProt P07333)", "assay": "TR-FRET kinase assay, FMS (CSFR)", "details": "Kinase Concentration 0.25 nM; 50 nM ULight-labeled substrate, 200 micromolar ATP, 2 hours", "procedure": "as §1, §2"}, "JAK2": {"target": "JAK2 (Homo sapiens, UniProt O60674)", "sequence (O60674 whole entry, species assumed)": "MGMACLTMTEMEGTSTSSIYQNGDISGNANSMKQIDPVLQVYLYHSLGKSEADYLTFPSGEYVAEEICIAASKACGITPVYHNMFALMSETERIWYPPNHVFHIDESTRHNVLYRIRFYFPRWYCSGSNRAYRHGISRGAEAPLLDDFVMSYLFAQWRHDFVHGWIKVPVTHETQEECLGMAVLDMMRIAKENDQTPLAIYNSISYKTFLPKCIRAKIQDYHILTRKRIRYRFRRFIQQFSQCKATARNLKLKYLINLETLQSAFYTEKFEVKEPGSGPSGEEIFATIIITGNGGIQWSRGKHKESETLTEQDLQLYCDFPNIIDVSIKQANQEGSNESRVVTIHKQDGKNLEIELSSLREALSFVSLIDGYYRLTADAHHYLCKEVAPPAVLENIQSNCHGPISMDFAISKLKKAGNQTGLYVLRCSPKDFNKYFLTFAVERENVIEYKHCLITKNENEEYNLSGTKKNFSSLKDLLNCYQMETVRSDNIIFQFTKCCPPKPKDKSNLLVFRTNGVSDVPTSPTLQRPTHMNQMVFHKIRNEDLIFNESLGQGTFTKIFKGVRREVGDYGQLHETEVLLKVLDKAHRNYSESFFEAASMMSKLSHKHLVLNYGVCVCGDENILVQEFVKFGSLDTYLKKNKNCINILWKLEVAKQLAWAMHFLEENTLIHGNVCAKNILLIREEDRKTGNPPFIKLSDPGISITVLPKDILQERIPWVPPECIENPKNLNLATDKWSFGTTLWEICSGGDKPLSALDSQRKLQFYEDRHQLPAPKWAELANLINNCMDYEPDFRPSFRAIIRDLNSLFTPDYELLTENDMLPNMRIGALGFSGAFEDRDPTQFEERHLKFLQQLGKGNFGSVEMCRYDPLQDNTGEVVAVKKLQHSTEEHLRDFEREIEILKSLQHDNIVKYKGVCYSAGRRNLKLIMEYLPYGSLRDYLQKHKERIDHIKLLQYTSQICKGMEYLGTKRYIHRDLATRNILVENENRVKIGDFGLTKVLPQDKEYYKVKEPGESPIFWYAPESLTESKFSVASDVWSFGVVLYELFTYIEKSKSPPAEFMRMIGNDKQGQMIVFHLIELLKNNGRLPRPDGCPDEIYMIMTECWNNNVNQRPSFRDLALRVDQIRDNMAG", "assay": "TR-FRET kinase assay, JAK2", "details": "Kinase Concentration 1 nM; 50 nM ULight-labeled substrate, 200 micromolar ATP, 2 hours", "procedure": "as §1, §2"}}}
{"sequence": "C AYE AYE AYE K EYA EYA EYA K AYA EYE R (CAYEAYEAYEKEYAEYAEYAKAYAEYER; tyrosine kinase substrate peptide) [BRB1]", "values": [{"measurement": "Signal to Noise ratio with BRB1 Peptide", "setting": "SRM", "value": 32.5}, {"measurement": "Signal to Noise ratio with BRB1 Peptide", "setting": "TRKC (NTRK3)", "value": 6.4}, {"measurement": "Signal to Noise ratio with BRB1 Peptide", "setting": "TXK", "value": 5.9}, {"measurement": "Signal to Noise ratio with BRB1 Peptide", "setting": "TRKB (NTRK2)", "value": 28.0}, {"measurement": "Signal to Noise ratio with BRB1 Peptide", "setting": "IGF1R", "value": 25.1}, {"measurement": "Signal to Noise ratio with BRB1 Peptide", "setting": "TYRO3", "value": 6.1}, {"measurement": "Signal to Noise ratio with BRB1 Peptide", "setting": "ALK", "value": 8.8}, {"measurement": "Signal to Noise ratio with BRB1 Peptide", "setting": "HER2", "value": 1.4}, {"measurement": "Signal to Noise ratio with BRB1 Peptide", "setting": "FMS (CSFR)", "value": 3.0}, {"measurement": "Signal to Noise ratio with BRB1 Peptide", "setting": "JAK2", "value": 35.5}]}
